In article PMC5984683 (Cancer research, 2018):
Numbering of substitutions follows the chain as printed. Names may count otherwise. Like-named read-outs stand apart in the source and are kept apart here. Each block holds one binder with its values, some of them ahead of it.

Columns and labels:
[1] = target: T1, full-length recombinant Fzd7 (human, UniProt O75084 33-574); assay: co-IP
[2] = target: T1, full-length recombinant Fzd7; assay: co-IP; remark: listed apart in the source

binding result [1]: binds
B1: full length recombinant TG2 (enzyme, UniProt P21980 1-687, looked up)
chain: MAEELVLERCDLELETNGRDHHTADLCREKLVVRRGQPFWLTLHFEGRNYEASVDSLTFSVVTGPAPSQEAGTKARFPLRDAVEEGDWTATVVDQQDCTLSLQLTTPANAPIGLYRLSLEASTGYQGSSFVLGHFILLFNAWCPADAVYLDSEEERQEYVLTQQGFIYQGSAKFIKNIPWNFGQFEDGILDICLILLDVNPKFLKNAGRDCSRRSSPVYVGRVVSGMVNCNDDQGVLLGRWDNNYGDGVSPMSWIGSVDILRRWKNHGCQRVKYGQCWVFAAVACTVLRCLGIPTRVVTNYNSAHDQNSNLLIEYFRNEFGEIQGDKSEMIWNFHCWVESWMTRPDLQPGYEGWQALDPTPQEKSEGTYCCGPVPVRAIKEGDLSTKYDAPFVFAEVNADVVDWIQQDDGSVHKSINRSLIVGLKISTKSVGRDEREDITHTYKYPEGSSEEREAFTRANHLNKLAEKEETGMAMRIRVGQSMNMGSDFDVFAHITNNTAEEYVCRLLLCARTVSYNGILGPECGTKYLLNLNLEPFSEKSVPLCILYEKYRDCLTESNLIKVRALLVEPVINSYLLAERDLYLENPEIKIRILGEPKQKRKLVAEVSLQNPLPVALEGCTFTVEGAGLTEEQKTVEIPDPVEAGEEVKVRMDLLPLHMGLHKLVVNFESDKLKAVKGFRNVIIGPA

binding result [1]: binds
B2: recombinant mutant TG2 (C277A) (enzyme)
chain: B1 chain with C277A

binding result [2]: binds
Binder: DAVEEGDWTATVVDQQDCTLSLQLTTPANA [TG2 peptide 81[residues removed]110]
